# Measurements published in PMC5017703, “The Neurite Outgrowth Inhibitory Nogo-A-Δ20 Region Is an Intrinsically Disordered Segment Harbouring Three Stretches with Helical Propensity” (PLoS ONE, 2016).
# B1: Nogo-A-Δ20 (residues 544–725 of the rat Nogo-A sequence) (domain or fragment, UniProt Q9JK11-1 544-725, looked up)
# chain: TGTKIAYETKVDLVQTSEAIQESLYPTAQLCPSFEEAEATPSPVLPDIVMEAPLNSLLPSAGASVVQPSVSPLEAPPPVSYDSIKLEPENPPPYEEAMNVALKALGTKEGIKEPESFNAAVQETEAPYISIACDLIKETKLSTEPSPDFSNYSEIAKFEKSVPEHAELVEDSSPESEPVDLF
# notes: Nogo-A (reticulon 4-A), rat, 1163 residues; Nogo-A-Δ20 region, residues 544-725 (182 residues), numbered as in the rat Nogo-A protein; the T7-tag lies between the N-terminal His6-tag and Nogo-A-Δ20; The N-terminal His6-tag was removed with thrombin; also called 15N-labelled Nogo-A-Δ20; [13C, 15N]-Nogo-A-Δ20; not shown: His6, N-terminal, cleaved; T7-tag, N-terminal, kept; His6, C-terminal, kept
# How the values were obtained:
# [1] = molecular target: S1PR2 ECL3 peptide ECL3 (Homo sapiens) (UniProt O95136); test: MST; settings: cited from earlier work
# [2] = molecular target: S1PR2 ECL2 peptide ECL2 (Homo sapiens) (UniProt O95136); test: MST; settings: cited from earlier work
# [3] = molecular target: the molecule itself; test: pulsed field gradient NMR diffusion; Nogo-A-Δ20 at 30 μM or 560 μM, without or with TCEP (5 mM or 2 mM), pH 7.4, 6°C; diffusion coefficients compared
Molecule,Kd [1],Kd [2],binding result [3]
Nogo-A-Δ20 Δ20 (from UniProt Q9JK11),350 nM,280 nM,–
B1,–,–,binds
